Assay results: IntAct's records for PubMed 24338975

Experiments:
psd10_human PSMD10 [1] = biological target: psd10_human PSMD10 (UniProt O75832)
psd10_human PSMD10 [2] = biological target: psd10_human PSMD10 (UniProt O75832); remark: listed apart in the source

Chain of psd10_human PSMD10 (O75832 whole entry): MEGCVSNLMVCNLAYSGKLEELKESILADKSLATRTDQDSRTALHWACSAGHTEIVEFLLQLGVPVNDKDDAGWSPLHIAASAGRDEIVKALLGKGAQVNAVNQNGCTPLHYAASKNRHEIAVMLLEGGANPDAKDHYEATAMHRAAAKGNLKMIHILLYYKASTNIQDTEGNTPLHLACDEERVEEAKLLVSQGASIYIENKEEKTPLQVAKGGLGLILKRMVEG
Chain of Cytoplasmic protein NCK2 (Homo sapiens), O43639 E167A;E168A;D170A (O43639 whole entry E167A/E168A/D170A): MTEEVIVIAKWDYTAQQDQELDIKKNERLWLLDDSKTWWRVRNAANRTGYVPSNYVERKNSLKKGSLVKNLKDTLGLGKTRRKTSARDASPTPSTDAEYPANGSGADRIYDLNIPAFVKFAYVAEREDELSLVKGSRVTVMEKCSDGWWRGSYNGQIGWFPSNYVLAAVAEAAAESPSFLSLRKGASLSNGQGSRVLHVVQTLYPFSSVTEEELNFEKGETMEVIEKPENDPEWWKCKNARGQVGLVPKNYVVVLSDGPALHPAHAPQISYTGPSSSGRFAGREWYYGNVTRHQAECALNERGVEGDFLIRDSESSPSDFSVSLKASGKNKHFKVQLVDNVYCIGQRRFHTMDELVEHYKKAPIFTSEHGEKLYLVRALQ

For “Chloride intracellular channel protein 1 (Homo sapiens) (from UniProt O00299) E150A;E151A;D153A”, the “effect of a mutation on the interaction” value (psd10_human PSMD10 [1]) was “disrupting interaction strength”.
For “Chloride intracellular channel protein 1 (Homo sapiens) (from UniProt O00299) V152E”, the “effect of a mutation on the interaction” value (psd10_human PSMD10 [1]) was “with no effect”.
“Cytoplasmic protein NCK2 (Homo sapiens), O43639 E167A;E168A;D170A” was tested, and the “effect of a mutation on the interaction” value (psd10_human PSMD10 [2]) was “disrupting interaction strength”.
